The series in a line: soluble fraction after stress (log2 fold change); higher = more stays soluble; pooled small domains, quantitative proteomics. The note with it: stress: 50 degC. In outline:
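After stress at 50°C, the amount of each protein still soluble was measured. This was done on pooled custom libraries of small protein domains, using high-throughput quantitative proteomics. The figure given is a base-two log fold change and stands for aggregation propensity, with higher values meaning more protein stays in solution.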
On to “HMAQELPYEKVTMNGKMFYVYHVKAGEGLYLISRTFSVNADEILKFNPSIENGLKSGQVLYIPIK”, for which the “soluble fraction (log2)” value is -0.0691.
To “HMAQISDESALYDLVKSVLDANPQSIADYKAGRDRALGFLMGQAMKLSKGKANPPVINKILKEMLDK” belongs 0.0791; to “HMAQKQLYIAGTDYTKNSTSQLVLAYFPAKPSSIKIFFDGIYQNKDKWSLFGKTIIFGLPISSNAVEVHYE”, -2.1; to “HMAQLPADLSKVKSSQISDQQLTQIAQQAKNSGQSEQAVLQELKQRGLPDTEIQALGARISGLMQ”, 0.137.
Consider “HMAQLVVTVDKLNKRTAIPVTLSDKSSNDSVVEKGFRFEGFPFVNTATNGKKWYKDREGFFYWAGGLMEEA”, for which the “soluble fraction (log2)” value came to 0.0125.
The same measure for “HMAQMDDPEMVLHIYNKMIQQRLFDTAVGYSYLKDLQEYLQSIPFIRKEDIFPIPVQHPQVEESLRKAK”: -0.367; for “HMAQTSAELIIEYLKRNDGFMELTDKSPADEIYETFGISKKNFKMAVGSLYKNRVIEIGQNGIRLVE”: -0.216.
The same measure for “HMAQTTKWREIHKVKRKETIFGIARDNGLTVDELIEANPEMTKPGYELKKGDFIYIPFPSKNIDTNAGTQT”: -0.157; for “HMARAESYGDIARLEQLLDEHANIAALDPGKLPAVRQQIWTLMRAARMDHDLGLAERPEDDSFDDMLLHV”: 0.133.
The same measure for “HMARAPIYPDGLTQREVEVLSLVAAGKTDREIAEELFIALRTVTTHVGNILNKIGAANRTEAAGYATRQGL”: -0.459.
Consider “HMARAVSPLEAIPGVGPRRRQQLLKQLGGMQEVARAGVEDLSRVPGISRALAQQIYDAFHGD”, for which the “soluble fraction (log2)” value was -0.149.
Take “HMARDPWDVLGVAKTATNDEIKRAFKRQAMMTHPDKQGGSEERFKEVNEAYSHIKDEQSRAKYQNSQ”: the “soluble fraction (log2)” value was determined as 0.238.
To “HMARDSYNGVQRTISTLLGQGNYDRAYDVAVGARGQMSKQQWSDVAKRIYEVSGIKIDDSVKY” belongs 0.159.
To “HMARRSRADAVRNREALIDAAKAAFTEAGPDVSLEEIARRAGVGIGTLYRHFPTRDAVIEAVYR” belongs 0.0559.
To “HMARRTPPPTVSELNALLRVAAPHIQRVILLGIYTGARIGPSELFSLKWDDVDLTRGVIGIRL” belongs -0.0306.
On to “HMARTDVKLREVAQELLRMGLLEESLRPHLYRTALASMERLNATLEPLDLIARADEIRGLVFLAVRH”, for which the “soluble fraction (log2)” value was -2.44.
To “HMARVSGIDLPKNKRGYIGLTYIYGIGRSTALHILNSAGVDPEKKVHEWNDDETTAIRNIINAEIKVEGAL” belongs -0.645; to “HMASAKTVAQSGTYKFAKTTAIKSSASDAASTVGTYYKGNTVNYNAKVTTNGQTWLRYTSYSGAQYYVKVS”, -3.18.
The same measure for “HMASANMPDVLGLDAETAKQVLAAKGFTKVEIYPMESSEPANRVVRQSEDRDTMVALTKEILLGVSNGS”: 0.186; for “HMASENISYSQFINQVKNSMVESVSIEADGKTISGKYKSGSSFVTYGLNDPKLVDDLLSNNVEIL”: 0.159; for “HMASGLITEEQAKSKALAHAGLSASQVNFIWVKQDWEDGRRVYEVEFYTDDYQEYDYEIDARTGEILSFDY”: -1.97.
The same measure for “HMASIGTATVTADNLRLRSEAGTGAETLTMAPKGAEVTVEEDAGDGWYKVTYGDTEGYMSGEWLKITLA”: -0.209.
Turning to “HMASLIGEEKALQIALEHAGVALENVAYSQVKLENDDGRWEYDTEFYSGSKEYDYEIDASTGEILGYDHD”, the “soluble fraction (log2)” value is -0.0337.
For “HMASLSITVNGETRRAAPGSIADLVRAIGLDPAKVAVERNGEIAPRSTLADVALADGDVLEIVHFVG”, the “soluble fraction (log2)” value is -0.0709.
The same measure for “HMASMEDILAEAKTKFQEGDLFKSVNEGIQGTHKLTLPLRIKESRIVDASGAAVYREGIWATVDK”: 0.108; for “HMASMNPVWLEFPNIPWGSAGWRMGWGEDYMRRWAKWYISLAEVERQSYKSDWPEPQEWEGFYAFMEHGT”: -1.63.
As for “HMASPEIAFLNKFYQLSNTVNEISVMKIVKNYQEKYQQRISIEQMAKTLKTMGYAVRNNIISNIEEAPV”, the “soluble fraction (log2)” value was -1.3.
The same measure for “HMASPRVWKDASSGRTLTGEFVELTKDAVKVRRANGDVVSLPLSRLTEEDITFAKGASETGGA”: 0.146.
To “HMASVLTAKLSEREVDVLNLLARGFTNADIAAQLHLSEGTVRNHVSTIFAKLDVNDRTQAAVIAIRHGL” belongs -0.775; to “HMASVLTGMLGRVTGELAPKGIVMVGNETWTAVSEDDSVIRIGEPVEVRSVEGLILTVFRRID”, -2.53; to “HMATAADLLQSATGVPRSDALLLLAKLLGVAKERLIAHPETVVSEKTQATFSDWIERVRGGFPTTYLLG”, -0.0115.
For “HMATAEETTPLWARNRLSHAIFGPGSVTGEDERSFEVAFDNGDTLNFSKKSAHLYFTAMSSR”, the “soluble fraction (log2)” value is -0.0942.
To “HMATARPPPPPESRVEVLFDGRWYAGTVVGGALDEHRATVFFDADRLSQVINFAETGIRVLGT” belongs -0.0673; to “HMATEYIIPTVTNKKLEEAIGIAQLRGFEISVDEYKPSDIDEGTVLEQSPAAGTNAKQGDTISVTVSSG”, 0.294.
To “HMATFTPYLVRITASVLNIRKGPGTTYAVTGQIKDRGVYTIVEQKGNWGRLKSGAGWISLSYTKK” belongs -3.12; to “HMATPAFEMYKVRRGDTPAGLAKEWGFPDMASFYRINPDARSDWKRGLQLVKPMNEMAVLQATA”, -0.255; to “HMATPKYMELVRWINEQIESKNLVPGQKMYSENTLKEMFGVSRQTVRHAIGVLENEGVIRRIQGSGTYIN”, -0.829.
To “HMATPSTGQVSVVRLNLRVSPSISSPVVTRLTQGDTVKILAASDDGRWYKVATADGRTGWLYTIYITAE” belongs -0.37.
Take “HMATQTGTVKWFNEGKGFGFIAPDDGSKDLFAHFSEIKTTGFKTLAEAQRVEFEVTEGRKGLQASNIK”: the “soluble fraction (log2)” value is 0.0521.
The same measure for “HMATRLPFGFAKRFGVLVEGKDDQITVYHKDGLQTAVILEIQRYLARPFRFEAVTPEEFERRLGLAYQS”: -0.808; for “HMATSNDTQITGSLALRFDGSGDTFTVNVNGDDKLEINTEGTVIYKPLTTAPTYVSGGLFFSSSGDFYVG”: -0.0386; for “HMATTIDFTVGDDVQVMNGPLESFTGKVTELNEASQKVKVDVVMFGRVTNVELDFVQVKKIT”: 0.162.
To “HMATTIEAPMPGKILDVKVNPGQAVSYGQVVLTMEAMKMETEIVAPADGTVASVLVKSGDMVETGAALVSL” belongs 0.0867; to “HMATTMSADWRPSEDAVGILVNAEINARFIEDAIPEFVLYWRERGAVHGAWNSKFIEHIRRQWAKFSAS”, -2.2; to “HMATTPEETILEYINKNNRISKQEIADLMGITRDGVSYHIKKLRKNGLLEWIGSPSNGHWEIIE”, 0.274.
For “HMATVHPIRIQGGMTTQQGGKTVWLWVSDEGRLMTEDEIAGESGGTVSSRMVRGVRVLTGTGVIYG”, the “soluble fraction (log2)” value was -2.02.
To “HMATVIDVATTLGRPITDPDEQRQVLNWIGKTERIISARLGDLAALDRQILADVISEVVARRARN” belongs -0.4; to “HMATVNIGNLTFTHKGDYASGTTYAKNDVVYYSTNGNAYIAKQATQGNAPTSTAHWDVFAAGSGG”, -0.161.
To “HMAVDAASSTIGKNVEVSVANEKGDYENFNGKVKSASIKDGVVYLELELKDTGEIKEVPYSSLTKIT” belongs 0.0595; to “HMAVDPSVLTRRERQALAWIARGLSNKEVARGLNLAESTVKVHVQSILRKLNLTSRVQAAVYAIEHGIDK”, -2.79.
The same measure for “HMAVFRVGDKVKSMEGMIGEVRGINGRLIQVATPYGLRDYYPHQITKVENPLAAAPAPLNEEA”: 0.269; for “HMAVGVFQKEDGYWGYRFSIIVDGKTIARRKFTDENGSKLRTKSEAVKARAAAMVAARMERVS”: -2.96.
For “HMAVIILDEPTLGLDPAVRISLWQAIQSARDSTMSAFLITTHYIKEVADYLSAVKILDHGREVASGNPSAL”, the “soluble fraction (log2)” value was -0.302.
To “HMAVKLELYRVFKEVAETGNISAAAKNLYISQSAVSQSIKQLETALQARLFARSPRGVTLTGEGQMLYQYV” belongs -1.44; to “HMAVKNAQIDVQQFFYSKSGEVDFGRKIKAIQSHFTPERLQSFTAAVPPSQWVSQLQVMWDSL”, -1.39; to “HMAVLGIQPVFHRSTGQTVYKSSVNTAKGRVYLGLFPTLTEALEIKLKYMQEHGHTKGITNLTNKLKEL”, -1.17.
Take “HMAVPFTIDVSQNGRYFIEEDNQVVEVSIGFLEDRFLRIIKSNPDIEVIIRGDAKASYESIAELLAVLQ”: the “soluble fraction (log2)” value is -1.06.
To “HMAVQPMDQVKAWLAEDNPADIKLLVPVLQKLDLLDYEQVRGEVADRAGVRKSLLDEAVKGN” belongs 0.0999.
The same measure for “HMAVRTELLALPAGWHGDASRLSTALAALQGVREAVVIASEGVAYLKVHGHDWDRDGARELLQN”: 0.00676.
The same measure for “HMAVSGRGSIIGGVATVLDDFADSGKVWLEGEAWQARSSVPLKQDQEVVVRAMDGLVLVVEPVA”: -0.198.
With “HMAVSNWQKLVSSIQTQLKILALYHGPEDGIYGPNTRSAIMLYEENIGLPVTGEPSRELLAHMLDQTD”, the “soluble fraction (log2)” value is -0.869.
To “HMAVTNLTAKQISDTRWRVTWDSTLASPTYYVYRDGLLMMQTRQELYEFDAARGEQVQIDVLDDMAAAPAE” belongs -0.741; to “HMAWAVRAGEGVLIRAGQPGFSATTRGTALSNGAIGEGVRVRNLGSGKEIQAWVVDKGEVETR”, 0.0168; to “HMAWIAVATKEDYSEYEWKELSPTTDWSTQTFDLGDLAGKTIYAVKMFFDHDTDVKDYKFNLGQLSITSN”, -0.266.
The same measure for “HMAYRLDVRNQTKGTYLVIQKKYWDKEKKQSRTKHHMSLGYVHDLQKLYSDPITHYKEVINQMNAEEKG”: -1.54; for “HMAYSEEDRRRVREELLTTALKLMSTQGIQHTTVEQVYRSVGISRSFFYAFFPTKEDLIVEAL”: 0.117.
The same measure for “HMDAAANTLRILKALSESPMSADRLAELLMEEGSGRNPRTIRRYIRALREAGFGVEHREGRYVL”: -0.381; for “HMDAAEVEATARAMLRRSALNLLAQREQTAFELKQKLSRRFPEQAALLDEVIERLQEQGLQDDTR”: -0.102; for “HMDAEEISILLEKAVLQLPEKQKMIFQLKYFEDLSYKDIQIITGGSIGGLKANYHHAVTKIEKLLS”: -0.0727.

(Values after the domain aggregation screens of Martell et al. (2025).)
